From US20140120128A1

Assays:
Assay in all cases: cell-based or functional assay
[1] = target: human TLR2 expressed on HEK293 cells (human) (UniProt O60603)
[2] = target: human TLR3 expressed on HEK293 cells (human) (UniProt O15455)
[3] = target: human TLR4 (MD2-CD14) expressed on HEK293 cells (human) (UniProt O00206)
[4] = target: human TLR5 expressed on HEK293 cells (human) (UniProt O60602)
[5] = target: human TLR7 expressed on HEK293 cells (human) (UniProt Q9NYK1)
[6] = target: T1, human TLR8 expressed on HEK293 cells (human) (UniProt Q9NR97)
T1 sequence: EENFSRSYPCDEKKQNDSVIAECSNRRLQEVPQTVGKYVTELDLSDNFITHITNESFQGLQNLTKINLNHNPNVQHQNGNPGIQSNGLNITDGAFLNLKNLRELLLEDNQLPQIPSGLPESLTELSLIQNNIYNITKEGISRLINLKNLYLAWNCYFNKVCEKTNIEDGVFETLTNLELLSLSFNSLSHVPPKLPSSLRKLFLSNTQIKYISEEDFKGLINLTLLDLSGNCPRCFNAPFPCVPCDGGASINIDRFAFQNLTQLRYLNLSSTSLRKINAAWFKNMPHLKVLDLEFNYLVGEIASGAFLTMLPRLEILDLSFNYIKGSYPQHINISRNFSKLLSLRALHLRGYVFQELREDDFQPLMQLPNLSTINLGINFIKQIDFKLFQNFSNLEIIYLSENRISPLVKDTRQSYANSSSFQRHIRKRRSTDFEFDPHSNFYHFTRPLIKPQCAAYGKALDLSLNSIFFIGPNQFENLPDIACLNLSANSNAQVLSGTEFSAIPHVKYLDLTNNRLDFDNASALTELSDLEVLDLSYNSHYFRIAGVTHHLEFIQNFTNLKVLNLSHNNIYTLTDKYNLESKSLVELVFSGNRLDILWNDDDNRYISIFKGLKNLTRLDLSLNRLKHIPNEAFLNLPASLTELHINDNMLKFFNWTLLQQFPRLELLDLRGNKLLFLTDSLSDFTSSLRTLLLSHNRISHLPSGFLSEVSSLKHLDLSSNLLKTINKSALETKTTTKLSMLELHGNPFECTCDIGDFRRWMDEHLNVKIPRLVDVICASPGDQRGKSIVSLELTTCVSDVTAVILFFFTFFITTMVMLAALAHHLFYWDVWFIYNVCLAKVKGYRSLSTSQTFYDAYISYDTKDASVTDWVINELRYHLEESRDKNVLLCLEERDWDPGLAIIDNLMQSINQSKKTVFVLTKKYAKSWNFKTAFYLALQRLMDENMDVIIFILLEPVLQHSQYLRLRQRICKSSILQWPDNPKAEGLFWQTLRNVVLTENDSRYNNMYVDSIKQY

[7] = target: T2, human TLR9 expressed on HEK293 cells (human) (UniProt Q9NR96)
T2 sequence: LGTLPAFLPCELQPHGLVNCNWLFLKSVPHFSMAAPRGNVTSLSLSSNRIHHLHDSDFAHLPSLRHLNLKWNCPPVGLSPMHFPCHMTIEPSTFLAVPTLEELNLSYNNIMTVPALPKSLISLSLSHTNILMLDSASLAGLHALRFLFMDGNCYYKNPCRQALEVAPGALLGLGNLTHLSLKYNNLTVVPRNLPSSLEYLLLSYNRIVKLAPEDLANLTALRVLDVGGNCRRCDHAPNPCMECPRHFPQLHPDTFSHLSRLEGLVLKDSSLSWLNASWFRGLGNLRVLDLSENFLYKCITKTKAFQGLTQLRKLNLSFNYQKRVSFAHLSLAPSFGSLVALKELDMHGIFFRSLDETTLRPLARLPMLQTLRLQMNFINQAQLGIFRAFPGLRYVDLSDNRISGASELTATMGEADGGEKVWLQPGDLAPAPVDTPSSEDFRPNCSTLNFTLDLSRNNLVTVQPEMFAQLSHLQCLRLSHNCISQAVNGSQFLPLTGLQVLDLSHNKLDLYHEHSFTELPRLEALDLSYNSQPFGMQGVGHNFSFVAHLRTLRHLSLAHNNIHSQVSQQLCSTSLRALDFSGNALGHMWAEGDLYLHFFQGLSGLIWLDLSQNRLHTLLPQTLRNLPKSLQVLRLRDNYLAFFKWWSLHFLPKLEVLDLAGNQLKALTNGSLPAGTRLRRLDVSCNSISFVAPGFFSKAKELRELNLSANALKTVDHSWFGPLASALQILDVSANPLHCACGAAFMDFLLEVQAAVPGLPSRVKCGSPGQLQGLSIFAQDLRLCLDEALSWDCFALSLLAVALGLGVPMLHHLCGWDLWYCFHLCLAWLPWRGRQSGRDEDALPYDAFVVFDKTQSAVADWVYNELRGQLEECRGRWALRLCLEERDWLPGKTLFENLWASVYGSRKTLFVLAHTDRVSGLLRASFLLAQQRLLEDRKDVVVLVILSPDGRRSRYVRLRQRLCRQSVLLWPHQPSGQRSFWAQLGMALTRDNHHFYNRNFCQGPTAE

Chain of human TLR4 (MD2-CD14) expressed on HEK293 cells (human) (O00206 24-839 limits assumed, chain 1 of 3): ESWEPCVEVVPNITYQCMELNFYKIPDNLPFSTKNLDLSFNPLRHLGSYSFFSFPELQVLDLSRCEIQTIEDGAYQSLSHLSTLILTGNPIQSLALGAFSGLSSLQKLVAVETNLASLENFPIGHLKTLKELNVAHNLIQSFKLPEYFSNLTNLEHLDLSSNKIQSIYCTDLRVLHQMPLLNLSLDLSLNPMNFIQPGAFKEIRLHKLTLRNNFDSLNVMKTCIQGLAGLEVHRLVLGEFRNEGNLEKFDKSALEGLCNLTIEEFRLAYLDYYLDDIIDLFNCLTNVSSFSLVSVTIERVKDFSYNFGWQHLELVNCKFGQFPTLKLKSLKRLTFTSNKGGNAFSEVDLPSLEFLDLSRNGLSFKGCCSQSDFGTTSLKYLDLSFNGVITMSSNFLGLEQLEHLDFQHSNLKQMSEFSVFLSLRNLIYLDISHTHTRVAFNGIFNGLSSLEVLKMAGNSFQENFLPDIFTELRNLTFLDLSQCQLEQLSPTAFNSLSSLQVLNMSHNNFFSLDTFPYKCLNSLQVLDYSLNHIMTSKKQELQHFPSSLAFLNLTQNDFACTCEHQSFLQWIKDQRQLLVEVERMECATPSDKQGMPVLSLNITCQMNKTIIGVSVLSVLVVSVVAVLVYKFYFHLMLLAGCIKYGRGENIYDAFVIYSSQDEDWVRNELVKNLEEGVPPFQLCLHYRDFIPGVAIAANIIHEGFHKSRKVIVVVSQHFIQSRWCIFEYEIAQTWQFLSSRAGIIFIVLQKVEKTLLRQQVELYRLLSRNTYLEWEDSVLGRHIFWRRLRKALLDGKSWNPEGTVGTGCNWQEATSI
Chain of human TLR4 (MD2-CD14) expressed on HEK293 cells (human) (Q9Y6Y9 19-160 limits assumed, chain 2 of 3, further chain): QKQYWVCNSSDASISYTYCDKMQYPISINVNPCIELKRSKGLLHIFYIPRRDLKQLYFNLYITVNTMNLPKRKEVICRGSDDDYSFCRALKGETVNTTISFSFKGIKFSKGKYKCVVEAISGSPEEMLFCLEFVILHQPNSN
Chain of human TLR4 (MD2-CD14) expressed on HEK293 cells (human) (P08571 20-345 limits assumed, chain 3 of 3, further chain): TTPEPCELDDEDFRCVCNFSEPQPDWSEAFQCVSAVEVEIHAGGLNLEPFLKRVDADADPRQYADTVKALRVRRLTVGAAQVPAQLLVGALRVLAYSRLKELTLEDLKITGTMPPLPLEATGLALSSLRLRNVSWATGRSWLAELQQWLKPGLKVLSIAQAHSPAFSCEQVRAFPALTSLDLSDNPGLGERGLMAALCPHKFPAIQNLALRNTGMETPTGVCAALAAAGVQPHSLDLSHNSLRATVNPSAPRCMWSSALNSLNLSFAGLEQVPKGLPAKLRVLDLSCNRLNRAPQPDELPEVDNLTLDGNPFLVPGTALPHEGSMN
Chain of human TLR5 expressed on HEK293 cells (human) (O60602 21-858): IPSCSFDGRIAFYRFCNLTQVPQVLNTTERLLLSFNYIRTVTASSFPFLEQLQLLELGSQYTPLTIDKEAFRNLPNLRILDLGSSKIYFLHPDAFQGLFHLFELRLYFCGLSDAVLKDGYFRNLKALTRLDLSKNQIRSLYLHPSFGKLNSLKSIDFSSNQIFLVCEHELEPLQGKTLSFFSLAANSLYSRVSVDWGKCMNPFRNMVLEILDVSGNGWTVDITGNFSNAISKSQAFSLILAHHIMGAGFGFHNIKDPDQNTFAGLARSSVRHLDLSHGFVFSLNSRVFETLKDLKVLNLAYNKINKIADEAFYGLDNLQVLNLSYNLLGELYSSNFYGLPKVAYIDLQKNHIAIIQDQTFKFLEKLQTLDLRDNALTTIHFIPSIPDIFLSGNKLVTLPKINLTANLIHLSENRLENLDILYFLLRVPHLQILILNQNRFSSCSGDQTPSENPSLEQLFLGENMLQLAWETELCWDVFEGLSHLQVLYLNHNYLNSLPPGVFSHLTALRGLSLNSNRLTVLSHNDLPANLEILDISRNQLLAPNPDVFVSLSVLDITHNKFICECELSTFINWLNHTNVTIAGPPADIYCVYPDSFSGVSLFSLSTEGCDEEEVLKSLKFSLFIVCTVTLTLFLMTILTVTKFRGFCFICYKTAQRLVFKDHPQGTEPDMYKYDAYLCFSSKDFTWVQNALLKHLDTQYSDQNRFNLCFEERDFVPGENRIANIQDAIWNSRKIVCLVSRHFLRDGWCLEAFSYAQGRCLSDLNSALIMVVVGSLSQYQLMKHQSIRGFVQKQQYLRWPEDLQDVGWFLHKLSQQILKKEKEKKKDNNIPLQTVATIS
Chain of human TLR7 expressed on HEK293 cells (human) (Q9NYK1 27-1049): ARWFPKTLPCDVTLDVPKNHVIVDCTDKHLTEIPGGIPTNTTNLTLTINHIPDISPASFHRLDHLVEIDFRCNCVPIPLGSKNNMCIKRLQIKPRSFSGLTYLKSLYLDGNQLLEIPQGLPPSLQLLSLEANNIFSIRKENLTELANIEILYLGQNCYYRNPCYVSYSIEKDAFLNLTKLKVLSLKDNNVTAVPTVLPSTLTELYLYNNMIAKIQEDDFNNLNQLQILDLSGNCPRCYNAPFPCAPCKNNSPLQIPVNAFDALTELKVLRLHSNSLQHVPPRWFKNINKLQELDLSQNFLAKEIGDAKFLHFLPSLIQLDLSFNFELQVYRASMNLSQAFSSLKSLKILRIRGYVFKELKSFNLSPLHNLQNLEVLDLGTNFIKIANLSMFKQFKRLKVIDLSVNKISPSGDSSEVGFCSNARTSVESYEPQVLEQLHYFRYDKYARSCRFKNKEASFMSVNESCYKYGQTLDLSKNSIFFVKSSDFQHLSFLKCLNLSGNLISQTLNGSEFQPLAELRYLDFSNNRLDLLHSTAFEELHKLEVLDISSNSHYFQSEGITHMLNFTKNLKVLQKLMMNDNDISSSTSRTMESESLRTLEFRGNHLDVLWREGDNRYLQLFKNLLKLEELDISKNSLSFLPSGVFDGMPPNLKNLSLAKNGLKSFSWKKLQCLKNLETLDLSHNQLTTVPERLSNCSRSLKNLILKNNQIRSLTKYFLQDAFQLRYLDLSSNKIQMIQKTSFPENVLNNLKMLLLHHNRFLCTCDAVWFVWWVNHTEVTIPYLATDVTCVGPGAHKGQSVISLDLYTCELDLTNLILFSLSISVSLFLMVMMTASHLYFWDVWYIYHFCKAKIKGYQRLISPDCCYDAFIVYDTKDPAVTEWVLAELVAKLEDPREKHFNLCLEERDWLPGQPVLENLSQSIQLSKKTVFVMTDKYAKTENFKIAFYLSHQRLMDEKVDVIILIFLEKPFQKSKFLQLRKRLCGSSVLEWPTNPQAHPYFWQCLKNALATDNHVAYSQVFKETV
Chain of human TLR2 expressed on HEK293 cells (human) (O60603 21-784): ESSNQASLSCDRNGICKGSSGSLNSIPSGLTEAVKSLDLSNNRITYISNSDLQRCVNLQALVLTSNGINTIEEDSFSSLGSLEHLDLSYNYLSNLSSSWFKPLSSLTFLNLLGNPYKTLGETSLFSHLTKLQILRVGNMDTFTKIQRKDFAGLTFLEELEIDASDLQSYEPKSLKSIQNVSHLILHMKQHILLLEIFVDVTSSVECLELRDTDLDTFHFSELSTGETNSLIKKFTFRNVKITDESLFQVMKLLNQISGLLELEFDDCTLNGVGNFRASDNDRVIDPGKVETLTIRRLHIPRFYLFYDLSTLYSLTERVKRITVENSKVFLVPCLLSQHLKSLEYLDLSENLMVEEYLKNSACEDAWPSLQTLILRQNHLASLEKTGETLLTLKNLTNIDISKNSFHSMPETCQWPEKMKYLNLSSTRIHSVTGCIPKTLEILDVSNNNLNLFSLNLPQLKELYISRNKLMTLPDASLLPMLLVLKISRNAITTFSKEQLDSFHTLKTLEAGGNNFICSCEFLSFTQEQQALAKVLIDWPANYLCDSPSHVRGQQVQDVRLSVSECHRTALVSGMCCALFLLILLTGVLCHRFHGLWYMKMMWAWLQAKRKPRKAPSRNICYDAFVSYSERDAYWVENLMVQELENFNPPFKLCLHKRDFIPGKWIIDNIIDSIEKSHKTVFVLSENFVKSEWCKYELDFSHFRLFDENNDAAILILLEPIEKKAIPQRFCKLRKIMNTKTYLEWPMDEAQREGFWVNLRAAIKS

Question: What does the source list for “wild type YscF (from UniProt O68691 1-87)”?
Answer: SEAP reporter expression in HEK293 cells, screening 1 [1]: 0.283; SEAP reporter expression in HEK293 cells, screening 2 [1]: 0.272; SEAP reporter expression in HEK293 cells, screening 1 [2]: 0.1; SEAP reporter expression in HEK293 cells, screening 2 [2]: 0.093; SEAP reporter expression in HEK293 cells, screening 1 [3]: 0.98; SEAP reporter expression in HEK293 cells, screening 2 [3]: 0.861; SEAP reporter expression in HEK293 cells, screening 1 [4]: 0.136; SEAP reporter expression in HEK293 cells, screening 2 [4]: 0.139; SEAP reporter expression in HEK293 cells, screening 1 [5]: 0.095; SEAP reporter expression in HEK293 cells, screening 2 [5]: 0.094; SEAP reporter expression in HEK293 cells, screening 1 [6]: 0.096; SEAP reporter expression in HEK293 cells, screening 2 [6]: 0.095; SEAP reporter expression in HEK293 cells, screening 1 [7]: 0.075; SEAP reporter expression in HEK293 cells, screening 2 [7]: 0.074
